Molecular target: the molecule itself
Test: NMR solution structure

B1: Mycobacterium tuberculosis NmtR (apo-state, homodimer) (natural protein)
chain: GHGVEGRNRPSAPLDSQAAAQVASTLQALATPSRLMILTQLRNGPLPVTDLAEAIGMEQSAVSHQLRVLRNLGLVVGDRAGRSIVYSLYDTHVAQLLDEAIYHSEHLHLGLSDRHPSAG
- binding result: binds

From article PMC3500661 (Biochemistry, 2012)
